First the molecules themselves.
B1: arbitrium peptide GMPRGA (peptide)
peptide: GMPRGA
notes: mature arbitrium hexapeptide of the SPbeta phage, cut from the precursor encoded by the aimP gene; also called arbitrium hexapeptide; GMPRGA peptide; source: synthetic peptide, bought: GLS Biochem
B2: C2A (dsDNA)
DNA 1: AATTAAATATTAGGTTTTAATAACATCTAGT
DNA 2: ACTAGATGTTATTAAAACCTAATATTTAATT
B3: C2G (dsDNA)
DNA 1: B2 DNA 1 with A2G
DNA 2: B2 DNA 2 with T30C
B4: C2T (dsDNA)
DNA 1: B2 DNA 1 with A2T
DNA 2: B2 DNA 2 with T30A
B5: A1G/T31'C (dsDNA)
DNA 1: B2 DNA 1 with A1G, A2C
DNA 2: B2 DNA 2 with T30G, T31C
B6: A1T/T31'A (dsDNA)
DNA 1: B2 DNA 1 with A1T, A2C
DNA 2: B2 DNA 2 with T30G, T31A
B7: AimR protein from the SPbeta phage, full length, wild type (natural protein, UniProt O64094 1-386, looked up)
chain: MELIRIAMKKDLENDNSLMNKWATVAGLKNPNPLYDFLNHDGKTFNEFSSIVNIVKSQYPDREYELMKDYCLNLDVKTKAARSALEYADANMFFEIEDVLIDSMISCSNMKSKEYGKVYKIHRELSNSVITEFEAVKRLGKLNIKTPEMNSFSRLLLLYHYLSTGNFSPMAQLIKQIDLSEISENMYIRNTYQTRVHVLMSNIKLNENSLEECREYSKKALESTNILRFQVFSYLTIGNSLLFSNYELAQENFLKGLSISVQNENYNMIFQQALCFLNNVWRKENKWINFESDSIMDLQEQAHCFINFNENSKAKEVLDKLDLLVHNDNELAMHYYLKGRLEQNKACFYSSIEYFKKSNDKFLIRLPLLELQKMGENQKLLELLLL
notes: AimR of Bacillus phage SPbeta, full length (DBD residues 1-48, CTD residues 49-386), codon-optimized cDNA in pET21b; also called SPbeta AimR; wild-type AimR; source: E. coli BL21 (DE3), purified (Ni-NTA, anion exchange Source 15Q, SEC Superdex-200)
B8: AimR-N166C (C71S/C107S/C213S/C275S/C304S/C347S/N166C) (natural protein, SPbeta phage, UniProt O64094 1-386, looked up)
chain: B7 chain with C71S, C107S, N166C, C213S, C275S, C304S, C347S
notes: AimR of Bacillus phage SPbeta, full length with six Cys-to-Ser changes and N166C, in pET15b; His tag removed with drICE as for the other mutant proteins; source: E. coli BL21 (DE3), purified as the mutant proteins (gel filtration)
B9: AimR-V129C (C71S/C107S/C213S/C275S/C304S/C347S/V129C), labelled with Alexa Fluor 488 and Cy5 (natural protein, SPbeta phage, UniProt O64094 1-386, looked up)
chain: B7 chain with C71S, C107S, V129C, C213S, C275S, C304S, C347S
modifications: Alexa Fluor 488 C5 maleimide or Cy5 maleimide conjugated to Cys129 (double-labeled protein fraction collected)
notes: AimR of Bacillus phage SPbeta, full length with six Cys-to-Ser changes and V129C, in pET15b; His tag removed with drICE as for the other mutant proteins; also called dye-labeled protein; source: E. coli BL21 (DE3), purified as the mutant proteins; dye-conjugated and purified on a Source-Q column
B10: 37 bp DNA (dsDNA)
DNA 1: ATCACTTAAATATTAGGTTTTAATAACATCTAGTGAT
DNA 2: ATCACTAGATGTTATTAAAACCTAATATTTAAGTGAT

In series [1] the target is B7. The experiment in a line: crystal structure; AimR (~270 µM) incubated with arbitrium peptide GMPRGA (2.7 mM), PDB 6JG9. The conditions noted are these: both partners purified.
A further series has as its target T1, AimR (Bacillus phage SPbeta, UniProt O64094 1-386).
T1 sequence: B7 chain
As to the kind of experiment: EMSA; 5 mM Mg2+; EMSA: 25 mM Tris-HCl pH 8.0, 150 mM NaCl, 5 mM MgCl2, 5 mM DTT, 0.1 mg/ml BSA, 10% glycerol, 50 ug/ml salmon sperm DNA, 4 C, 15 min; smFRET: 20 mM phosphate pH. The following applies: protein: recombinant; tags: C-terminal 8xHis; chain copies: 2; label: FAM.

Series [2] deals with the molecule itself. The experiment in a line: crystal structure; full-length AimR with the 31 bp DNA fragment and 5 mM MgCl2, 2.10 Å, PDB 6JG8.
Series [3] concerns the molecule itself. The experiment in a line: cross-linking; disulfide cross-linking of Cys166 by o-phenanthroline copper complex, AimR-N166C ~1 mg/ml, room temperature 30 min, nonreducing SDS-PAGE; alone or with DNA, unrelated peptide or arbitrium peptide.
Series [4] concerns the molecule itself. The experiment in a line: FRET or BRET; single-molecule FRET in solution between Alexa488 and Cy5 on Cys129 of the protomers, ~150 pM labelled AimR V129C, 25 °C, pH 7.4, 20 mM phosphate, 100 mM NaCl, 0.01% Tween 20; peptides titrated in. A general note: Bioluminescence resonance energy transfer reports proximity on the nanometre scale.
The target of the next series is T2, AimR-V129C (Bacillus phage SPbeta, UniProt O64094 1-386, C71S;C107S;C213S;C275S;C304S;C347S;V129C).
T2 sequence: B7 chain with C71S, C107S, V129C, C213S, C275S, C304S, C347S
The experiment in a line: smFRET; 1 uM DNA; EMSA: 25 mM Tris-HCl pH 8.0, 150 mM NaCl, 5 mM MgCl2, 5 mM DTT, 0.1 mg/ml BSA, 10% glycerol, 50 ug/ml salmon sperm DNA, 4 C, 15 min; smFRET: 20 mM phosphate pH. The conditions noted are these: protein: recombinant; tags: 6xHis removed by drICE; Alexa Fluor 488 and Cy5 on C129; chain copies: 2. On the technique in general: In EMSA bound probe runs differently from free probe, usually more slowly.

Positions count from the first letter of the chain named. Names and notes keep the numbering of the source.

The term stoichiometry N denotes a count of units in the complex or per binding partner.

For the molecule B1, in series [1], the binding result is given as “binds”.

Consider B2, for which the binding signal with AimR is ~8 fold lower binding than WT DNA.

Consider B3, for which, in the series with AimR, the binding signal is ~9 fold lower binding than WT DNA.

Turning to B4, in the series with AimR, the binding signal was ~42 fold lower binding than WT DNA.

Consider B5, for which the binding signal in the series with AimR is ~19 fold lower affinity than WT DNA.

With B6, the binding signal with AimR is ~7 fold lower affinity than WT DNA.

Turning to B7, the “stoichiometry N” value in series [2] turned out to be 2.

For the molecule B8, in series [3], the “stoichiometry N” value amounted to 2.

As for B9, the binding result in series [4] is given as “binds”.

Take B10: in the series with AimR-V129C, the binding result is given as “binds”.

Values taken from paper PMC6536502, “Structural insights into DNA recognition by AimR of the arbitrium communication system in the SPbeta phage” (Cell Discovery, 2019).
